# Source: patent US20220313845A1 (MYTHIC THERAPEUTICS, published 2022)
# Substitutions are numbered along the chain they refer to.
# T1: recombinant human DLL3 extracellular domain (R&D Systems, Cat #9749-DL) (human, UniProt Q9NYJ7 27-492)
# T1 construct: Bought protein; also called soluble recombinant human DLL3 extracellular domain
# T1 sequence: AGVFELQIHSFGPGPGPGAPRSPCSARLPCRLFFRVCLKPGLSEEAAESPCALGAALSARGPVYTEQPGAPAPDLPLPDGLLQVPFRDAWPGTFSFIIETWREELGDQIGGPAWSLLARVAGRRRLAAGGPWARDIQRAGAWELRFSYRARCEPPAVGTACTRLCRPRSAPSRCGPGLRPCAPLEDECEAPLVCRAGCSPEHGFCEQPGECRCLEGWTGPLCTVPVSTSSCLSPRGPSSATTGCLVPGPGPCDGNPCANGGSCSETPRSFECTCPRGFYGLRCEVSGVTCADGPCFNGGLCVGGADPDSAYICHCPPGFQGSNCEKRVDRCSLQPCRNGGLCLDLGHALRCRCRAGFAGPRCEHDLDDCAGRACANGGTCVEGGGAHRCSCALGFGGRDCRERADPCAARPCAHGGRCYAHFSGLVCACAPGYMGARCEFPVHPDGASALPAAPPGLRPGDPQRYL
# T2: DLL3 on NCI-H82 cells (human, UniProt Q9NYJ7 27-618)
# T2 construct: Endogenous DLL3 of NCI-H82 (DLL3+) cells; also called cell surface DLL3
# T2 sequence: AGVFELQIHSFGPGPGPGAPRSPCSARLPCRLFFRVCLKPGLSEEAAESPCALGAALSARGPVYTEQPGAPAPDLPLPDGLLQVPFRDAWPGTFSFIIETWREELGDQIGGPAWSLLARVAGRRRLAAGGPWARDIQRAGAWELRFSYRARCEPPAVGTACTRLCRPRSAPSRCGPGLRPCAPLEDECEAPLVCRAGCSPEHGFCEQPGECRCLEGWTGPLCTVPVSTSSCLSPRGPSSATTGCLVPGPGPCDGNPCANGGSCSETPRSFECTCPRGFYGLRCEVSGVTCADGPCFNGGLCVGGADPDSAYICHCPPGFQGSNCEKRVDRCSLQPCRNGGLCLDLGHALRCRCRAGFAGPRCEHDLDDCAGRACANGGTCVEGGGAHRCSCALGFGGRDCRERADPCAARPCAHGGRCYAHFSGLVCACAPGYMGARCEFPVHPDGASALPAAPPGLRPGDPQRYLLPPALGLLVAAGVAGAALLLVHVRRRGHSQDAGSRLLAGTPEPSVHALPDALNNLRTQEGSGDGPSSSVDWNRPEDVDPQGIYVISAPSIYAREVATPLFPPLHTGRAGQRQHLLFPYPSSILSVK
# B1: SEQ ID NO 612 (other)
# VH: EVQLVESGGGLVQPGGSLRLSCAASGFNISSSDIGWVRRAPGKGEELVARIYPTNGYTRYADSVKGRFTISADTSKNTAYLQMNSLRAEDTAVYYCARYYYYDDDGYYYEHAIDYSGQGTLVTVSS
# notes: also called Humanized VH variant #7
# B2: SEQ ID NO 616 (other)
# VH: EVQLVESGGGLVQPGGSLRLSCAASGFNIHYEEIGWVRRAPGKGEELVARIYPTNGYTRYADSVKGRFTISADTSKNTAYLQMNSLRAEDTAVYYCARYSYYYHYGGGMDYSGQGTLVTVSS
# notes: also called Humanized VH variant #11
# B3: SEQ ID NO 608 (other)
# VH: EVQLVESGGGLVQPGGSLRLSCAASGFNISYYSIGWVRRAPGKGEELVARIYPTNGYTRYADSVKGRFTISADTSKNTAYLQMNSLRAEDTAVYYCARYHHSEYSDYYGYYSEYGFDYSGQGTLVTVRS
# notes: also called Humanized VH variant #3
# B4: SEQ ID NO 606 (other)
# VH: EVQLVESGGGLVQPGGSLRLSCAASGFNISYYYIGWVRRAPGKGEELVARIYPTNGYTRYADSVKGRFTISADTSKNTAYLQMNSLRAEDTAVYYCARAYGDSDHYSEAIDYSGQGTLVTVSS
# notes: also called Humanized VH variant #1
# B5: SEQ ID NO 615 (other)
# VH: EVQLVESGGGLVQPGGSLRLSCAASGFNIHSYYIGWVRRAPGKGEELVARIYPTNGYTRYADSVKGRFTISADTSKNTAYLQMNSLRAEDTAVYYCARGYYGHEYDYHYDYYGGGFDYSGQGTLVTVSS
# notes: also called Humanized VH variant #10
# B6: SEQ ID NO 613 (other)
# VH: EVQLVESGGGLVQPGGSLRLSCAASGFNIEYESIGWVRRAPGKGEELVARIYPTNGYTRYADSVKGRFTISADTSKNTAYLQMNSLRAEDTAVYYCARSEYSHYSGSHHYYALDYSGQGTLVTVSS
# notes: also called Humanized VH variant #8
# B7: SEQ ID NO 614 (other)
# VH: B6 VH with E30S, Y31E, E32H, E100Y, S102H, H103G, G106H, S107G, L113I
# notes: also called Humanized VH variant #9
# B8: SEQ ID NO 610 (other)
# VH: EVQLVESGGGLVQPGGSLRLSCAASGFNIEYYSIGWVRRAPGKGEELVARIYPTNGYTRYADSVKGRFTISADTSKNTAYLQMNSLRAEDTAVYYCAREYYSYHDEYEYDYALDYSGQGTLVTVSS
# notes: also called Humanized VH variant #5
# B9: SEQ ID NO 620 (other)
# VH: B6 VH with E30Y, Y31D, E32H, E100S, H103G, S105Y
# notes: also called Humanized VH variant #15
# B10: SEQ ID NO 609 (other)
# VH: EVQLVESGGGLVQPGGSLRLSCAASGFNIYSYSIGWVRRAPGKGEELVARIYPTNGYTRYADSVKGRFTISADTSKNTAYLQMNSLRAEDTAVYYCAREHYHGYYDGAHYYALDYSGQGTLVTVSS
# notes: also called Humanized VH variant #4
# B11: SEQ ID NO 611 (other)
# VH: B10 VH with Y30E, S31H, E99H, H102Y, Y105H, D106S, A108Y, Y110H, L113I
# notes: also called Humanized VH variant #6
# B12: SEQ ID NO 619 (other)
# VH: B6 VH with E30S, Y31H, E32Y, R39H, S99H, E100H, S105D, S107H, H108S, A112G
# notes: also called Humanized VH variant #14
# B13: SEQ ID NO 607 (other)
# VH: B6 VH with E30Y, Y31S, E100Y, S105D, S107H, H108Y, A112G
# notes: also called Humanized VH variant #2
# B14: SEQ ID NO 618 (other)
# VH: B6 VH with E30S, Y31E, E100Y, S102A, G106A, S107G, H108Y, H109Y
# notes: also called Humanized VH variant #13
# B15: rovalpituzumab (antibody, V domains shown)
# VH: QVQLVQSGAEVKKPGASVKVSCKASGYTFTNYGMNWVRQAPGQGLEWMGWINTYTGEPTYADDFKGRVTMTTDTSTSTAYMELRSLRSDDTAVYYCARIGDSSPSDYWGQGTLVTVSS
# VL: EIVMTQSPATLSVSPGERATLSCKASQSVSNDVVWYQQKPGQAPRLLIYYASNRYTGIPARFSGSGSGTEFTLTISSLQSEDFAVYYCQQDYTSPWTFGQGTKLEIK
# notes: IgG expressed in Expi293; the entries called heavy and light chain are variable domains; also called MYT0638
# Molecular target: T1, recombinant human DLL3 extracellular …
# Experiment: phage ELISA after three rounds of panning on biotinylated recombinant human DLL3
# Source text: Multiple ABPC display systems, including phage display systems and those with ABPCs based on VH domains, have been described in the literature and can be used as a template for selection of pH engineered ABPCs using panning (Scroter C (2015) “A generic approach to engineer antibody pH switches using combinatorial histidine scanning libraries and yeast display” mAbs, 7:1, 138-151; Bonvin P (2015) “De novo isolation of antibodies with pH-dependent binding properties” mAbs, 7:2, 294-302; Traxlmayr P (2014) “Construction of pH-sensitive Her2-binding IgG1-Fc by directed evolution” Biotechnology Journal 9(8): 1013-1022; Gera N (2012) “Design of pH sensitive binding proteins from the hyperthermophilic Sso7 d scaffold” PLOS ONE 7 (11) e48928). pH engineered anti-DLL3 variants were selected by screening a proprietary humanized VH domain phage display library. Humanized VH library was screened against soluble recombinant human DLL3 extracellular domain (R&D Systems, Cat #9749-DL) in three rounds of selections with successively lower concentrations to isolate pH dependent anti-DLL3 VH domains. Briefly, the library was depleted for non-specific binders by incubating with Dynal M-280 streptavidin beads, bound antibodies were separated via a magnet and supernatant was collected for positive selection with human DLL3. Depleted library was further incubated with biotinylated recombinant human DLL3 at pH 7.4 for 1-3 hours at room temperature. Dynal streptavidin beads were added to the mixture to capture human DLL3 bound antibodies and washed 3× with a pH 7.4 buffer. Bound antibodies were eluted from beads using 0.1 M glycine pH 2.7 which was then neutralized with 1M Tris pH 7.4.
row,Binder,binding result
1,B1,binds
2,B2,binds
3,B3,binds
4,B4,binds
5,B5,binds
6,B6,binds
7,B7,binds
8,B8,binds
9,B9,binds
10,B10,binds
11,B11,binds
12,B12,binds
13,B13,binds
14,B14,binds

# Molecular target: T2, DLL3 on NCI-H82 cells
# Experiment: flow cytometry titration on NCI-H82 cells, Alexa Fluor 488 anti-human IgG; Example 37 calls the fitted value a dissociation constant KD
# Method: FIGS. 20a-c: Characterization of binding affinity for anti-DLL3 mAbs. Anti-DLL3 mAbs were assayed for their binding to NCI-H82 cells.
# Binding affinity of selected anti-DLL3 pH engineered antibody variants from Examples 9-13 were measured on NCI-H82 cells. 100,000 cells per well were resuspended in 900 μL FC buffer in a 96 well deep well plate. Rovalpituzumab and pH engineered antibody variants were serially diluted at a 1:3 dilution. 100 μL of diluted antibody was added to each well with final concentration ranging from […] and incubated for 2 hours at 4° C. Post incubation, the cells were spun at 2000 rpm for 2 min and supernatant was discarded. Cells were washed twice with 500 μL of ice-cold FC buffer and resuspended with 100 μL of FC buffer. The cells were then transferred from the deep well plate to 96 well round bottom plate, spun at 2000 rpm for 2 min and incubated with 100 μL of 10 μg/mL Alexa Fluor 488 conjugated goat anti-human IgG secondary antibody (ThermoFisher Scientific, A11013) for 30 min. Post incubation, cells were washed with FC buffer and resuspended in 100 μL of FC buffer to read on a BD Accuri C6 flow cytometer. Binding affinity was measured as a dissociation constant KD by GraphPad Prism assuming Michaelis-Menten binding kinetics. […]
row,Binder,KD
1,B15,8 pM
